Results: patent publication US20230212320A1

Experiments:
[1] = target: Fc2 of PTC039 (IgG1 Fc chain with L351G, T366S, L368A, Y407V) (Homo sapiens (Human)) [IgG part: P0DOX5]; assay: SE-HPLC, PTC040 co-expression
[2] = target: Fc2 of PTC039 (IgG1 Fc chain with L351G, T366S, L368A, Y407V) (Homo sapiens (Human)) [IgG part: P0DOX5]; assay: SE-HPLC, PTC074 co-expression

Fc2 of PTC039 (IgG1 Fc chain with L351G, T366S, L368A, Y407V) (from UniProt P0DOX5 218-449)
Fc-2-2 homo-dimer (%) [1]: 1.5% | Fc-2-2 homo-dimer (%) [2]: 0.96%
